The values below come from PMC3035177 (Chemistry & biology, 2005).

This assay deals with T1, DnaG primase (purified) (B. stearothermophilus, UniProt Q9X4D0 1-597).
T1 sequence (looked up): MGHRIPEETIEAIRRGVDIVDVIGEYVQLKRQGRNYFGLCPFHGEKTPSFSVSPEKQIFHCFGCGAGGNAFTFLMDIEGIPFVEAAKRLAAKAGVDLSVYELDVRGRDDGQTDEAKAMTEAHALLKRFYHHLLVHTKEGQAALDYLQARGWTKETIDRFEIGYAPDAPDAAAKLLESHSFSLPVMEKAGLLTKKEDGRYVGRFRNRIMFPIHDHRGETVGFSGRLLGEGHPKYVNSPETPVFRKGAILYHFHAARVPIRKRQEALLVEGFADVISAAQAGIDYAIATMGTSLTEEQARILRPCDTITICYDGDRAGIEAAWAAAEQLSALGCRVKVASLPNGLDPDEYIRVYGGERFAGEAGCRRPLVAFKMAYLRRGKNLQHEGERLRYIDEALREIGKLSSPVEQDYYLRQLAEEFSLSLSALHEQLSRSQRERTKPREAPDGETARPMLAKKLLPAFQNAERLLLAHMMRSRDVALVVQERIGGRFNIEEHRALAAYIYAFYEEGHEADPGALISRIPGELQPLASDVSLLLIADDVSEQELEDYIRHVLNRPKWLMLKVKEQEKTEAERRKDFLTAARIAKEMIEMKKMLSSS
The assay is described as follows: SEC. A general note: In gel filtration, larger molecules generally elute earlier.

B1: DnaB helicase (purified) (enzyme, B. stearothermophilus, UniProt Q9X4C9 1-454, looked up)
chain: MSELFSERIPPQSIEAEQAVLGAVFLDPAALVPASEILIPEDFYRAAHQKIFHAMLRVADRGEPVDLVTVTAELAASEQLEEIGGVSYLSELADAVPTAANVEYYARIVEEKSVLRRLIRTATSIAQDGYTREDEIDVLLDEADRKIMEVSQRKHSGAFKNIKDILVQTYDNIEMLHNRDGEITGIPTGFTELDRMTSGFQRSDLIIVAARPSVGKTAFALNIAQNVATKTNENVAIFSLEMSAQQLVMRMLCAEGNINAQNLRTGKLTPEDWGKLTMAMGSLSNAGIYIDDTPSIRVSDIRAKCRRLKQESGLGMIVIDYLQLIQGSGRSKENRQQEVSEISRSLKALARELEVPVIALSQLSRSVEQRQDKRPMMSDIRESGSIEQDADIVAFLYRDDYYNKDSENKNIIEIIIAKQRNGPVGTVQLAFIKEYNKFVNLERRFDEAQIPPGA
As to B1, the binding result is recorded as “binds”.
